Substrate in this data set: Nc1ncnc2c1ncn2[C@@H]1O[C@H](COP(=O)(O)OP(=O)(O)OP(=O)(O)O)[C@@H](O)[C@H]1O
The data set can be described thus: Initial substrate results of analogues with mevalonate kinase (FIG. 8). The class given is biochemical, Streptococcus pneumoniae. Particulars: other: ATP. How it is done: FIG. 8. Initial substrate results [analogue] ranged from 2.0-2.5 mM, except #6 (4.2 mM) and #8 (6.2 mM).
A series of compounds related to compounds 4, 5, 23, and 25 can be synthesized as potential competitive or noncompetitive reversible inhibitors of MK and DPM-DC (See, e.g., FIGS. 6-7). The representative synthesis shown (Scheme 4a) is a modification of that shown in Scheme 4, and R is limited only by availability of the corresponding reagent and synthetic technique, as would be understood by those skilled in the art made aware of this invention (e.g., alkyl, vinyl, acetylenyl, aryl, heteroaryl, etc., via Grignard reaction with the corresponding magnesium bromide or chloride).

The record followed here is patent US8710032B2, “Inhibitors of the mevalonate pathway of Streptococcus pneumoniae” (Northwestern University, priority 2006, dated 2014).

In general, Km refers to the concentration of substrate that gives half-maximal velocity.

B1: mevalonate kinase (Streptococcus pneumoniae TIGR4) (protein)
chain: MTKKVGVGQAHSKIILIGEHAVVYGYPAISLPLLEVEVTCKVVPAESPWRLYEEDTLSMAVYASLEYLNITEACIRCEIDSAIPEKRGMGSSAAISIAAIRAVFDYYQADLPHDVLEILVNRAEMIAHMNPSGLDAKTCLSDQPIRFIKNVGFTELEMDLSAYLVIADTGVYGHTREAIQVVQNKGKDALPFLHALGELTQQAEVAISQKDAEGLGQILSQAHLHLKEIGVSSPEADFLVETTLSHGALGAKMSGGGLGGCIIALVTNLTHAQELAERLEEKGAVQTWIESL
With B1, the Km was found to be 850 µM.
